{"source": "patent US20210213055A1", "about": "(Stanford University, published 2021)", "binders": {"B1": {"name": "CD24 expressed on human cancer cells (MCF-7 and other CD24+ cells) (ligand, UniProt P25063 27-59, looked up)", "chain": "SETTTGTSSNSSQSTSNSGLAPNPTNATTKAAG", "modifications": "also: heavily glycosylated, sialylated, GPI-anchored", "notes": "whole, on cells; also called Small Cell Lung Carcinoma Cluster 4 Antigen"}}, "key": {"[1]": {"target": "T1, recombinant Siglec5-Fc (human, UniProt O15389 17-434, limits assumed)", "T1 construct": "Bought reagent; not shown: human Fc", "T1 sequence (looked up)": "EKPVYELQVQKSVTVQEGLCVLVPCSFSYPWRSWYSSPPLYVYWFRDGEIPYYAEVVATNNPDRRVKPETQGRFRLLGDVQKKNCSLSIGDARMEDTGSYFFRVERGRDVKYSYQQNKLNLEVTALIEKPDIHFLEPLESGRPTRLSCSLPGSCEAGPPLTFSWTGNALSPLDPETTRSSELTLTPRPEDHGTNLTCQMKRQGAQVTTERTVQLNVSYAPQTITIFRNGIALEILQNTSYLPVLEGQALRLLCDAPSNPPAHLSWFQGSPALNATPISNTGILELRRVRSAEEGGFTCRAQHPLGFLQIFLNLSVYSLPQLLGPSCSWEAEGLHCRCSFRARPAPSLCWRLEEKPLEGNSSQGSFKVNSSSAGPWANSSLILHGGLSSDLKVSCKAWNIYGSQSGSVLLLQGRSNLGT", "assay": "flow cytometry, Fc-fusion on MCF-7 cells, anti-human Fc detection", "procedure": "Siglec10 has been reported to interact with the highly sialylated form of CD24. […] Indeed, we observed that CD24 deletion alone is insufficient to completely abrogate Siglec-10-Fc binding in the presence of surface sialylation (FIG. 15a,b).\nNeuraminidase treatment and recombinant Siglec binding assay. MCF-7 cells were treated with either neuraminidase (from Vibrio cholerae, Roche) (1×10⁶ cells/100 U/mL) or neuraminidase that was heat inactivated for 15 min at 95° C. prior to incubation for 1 h at 37° C. in serum-free medium, after which reactions were quenched with serum prior to analysis. Recombinant Siglecs (10, 5, and 9) were purchased as human Fc-fusion proteins from R&D Systems. Binding of recombinant Siglecs versus human IgG1 control was assayed at a concentration of 1×10⁵ cells/1 mg/mL at 37° C. for 1 h, in the absence of EDTA. Cells were stained with a fluorescently-conjugated anti-human Fc antibody (Biolegend) to enable the measurement of recombinant Siglec binding by flow cytometry."}, "[2]": {"target": "T2, Siglec-10 expressed on human donor-derived macrophages (human, UniProt Q96LC7 17-697)", "T2 sequence (looked up)": "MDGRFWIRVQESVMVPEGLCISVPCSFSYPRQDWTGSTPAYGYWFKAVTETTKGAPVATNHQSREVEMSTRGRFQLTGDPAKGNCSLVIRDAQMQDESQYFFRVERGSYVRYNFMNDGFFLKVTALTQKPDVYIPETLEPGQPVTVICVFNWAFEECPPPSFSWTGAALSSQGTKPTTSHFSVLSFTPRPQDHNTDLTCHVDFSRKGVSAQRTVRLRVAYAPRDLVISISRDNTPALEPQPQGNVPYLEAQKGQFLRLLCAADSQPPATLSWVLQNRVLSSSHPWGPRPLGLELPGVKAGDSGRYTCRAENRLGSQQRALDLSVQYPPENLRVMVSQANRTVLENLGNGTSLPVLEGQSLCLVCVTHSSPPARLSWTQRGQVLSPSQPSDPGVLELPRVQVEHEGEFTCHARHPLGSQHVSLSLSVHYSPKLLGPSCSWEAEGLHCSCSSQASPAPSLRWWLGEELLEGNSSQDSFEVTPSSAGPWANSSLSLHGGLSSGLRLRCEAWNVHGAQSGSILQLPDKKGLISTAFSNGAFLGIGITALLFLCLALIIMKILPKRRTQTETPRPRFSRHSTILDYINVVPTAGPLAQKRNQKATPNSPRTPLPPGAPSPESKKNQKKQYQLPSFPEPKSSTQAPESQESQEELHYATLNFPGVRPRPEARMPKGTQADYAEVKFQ", "assay": "cell-based or functional assay"}}, "note": "Ends that are not written are not given here.", "data": [{"binder": "B1", "values": [{"measurement": "binding result", "setting": "[1]", "value": "no binding (tested: 1×10^5 cells/1 mg/mL)"}, {"measurement": "phagocytosis of CD24-expressing human tumors", "setting": "[2]", "value": "≤ 13", "unit": "fold"}]}]}
